Test results published in US20250388694A1.

Target: Human TCTP (translationally controlled tumor protein) (human) (UniProt P13693)
Assay: SPR, Biacore 8K, human TCTP immobilised on CM5 chip, antibody as analyte, 1:1 model

Sequence of Human TCTP (translationally controlled tumor protein) (human) (P13693 whole entry): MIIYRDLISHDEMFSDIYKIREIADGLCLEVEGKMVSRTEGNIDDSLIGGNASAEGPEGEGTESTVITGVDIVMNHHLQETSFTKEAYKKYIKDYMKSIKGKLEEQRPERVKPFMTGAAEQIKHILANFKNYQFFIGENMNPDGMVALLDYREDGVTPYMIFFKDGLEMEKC

Kd: 263 nM
B1: 55F3 (antibody, from another filing, V domains shown)
VH: DVQLQESGPGLVKPSQSLSLTCTATGYSIASDYAWNWIRQFPGNKLEWMGYINYSGSTGYNPSLKSRISITRDTSKNQFFLQLNSVTTEDTATYYCARFEAGYWGQGTTLTVSS
VL: DIKMTQSPSSMSASLGERVTITCKASQDINRYLSWFQQKPGKSPKTLIYRANRLVDGVPSRFSGSGSGQDYSLTISSLEYGDMGIYYCLQYNEFPLTFGAGTKLELKR
